Reference: PMC8632965

Molecular target: T1, extracellular portion of CD98 (212-630 of CD98hc)
T1 chain: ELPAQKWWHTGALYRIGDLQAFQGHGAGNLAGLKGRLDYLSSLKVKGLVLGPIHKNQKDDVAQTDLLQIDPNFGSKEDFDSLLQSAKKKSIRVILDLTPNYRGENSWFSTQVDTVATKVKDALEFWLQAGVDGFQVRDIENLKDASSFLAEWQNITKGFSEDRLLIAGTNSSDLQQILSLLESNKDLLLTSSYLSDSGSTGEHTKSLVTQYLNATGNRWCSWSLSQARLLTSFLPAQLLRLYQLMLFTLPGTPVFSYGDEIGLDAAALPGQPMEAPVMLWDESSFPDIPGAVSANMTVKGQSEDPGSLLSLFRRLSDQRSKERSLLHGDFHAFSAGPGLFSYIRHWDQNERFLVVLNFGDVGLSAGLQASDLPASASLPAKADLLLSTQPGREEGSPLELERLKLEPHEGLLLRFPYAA
Experiment: SPR
Conditions: chain shown with the change;; parent: est. 24; read off a plot

response: 3.5 RU
B1: domain 1 of CD147, P35613-2 K63A (protein)
chain: AAGTVFTTVEDLGSKILLTCSLNDSATEVTGHRWLKGGVVLAEDALPGQKTEFKVDSDDQWGEYSCVFLPEPMGTANIQLHGPPRVKAVKSSEHINEGETAMLVCKSESVPPVTDWAWYKITDSEDKALMNGSESRFFVSSSQGRSELHIENLNMEADPGQYRCNGTSSKGSDQAIITLRVRSH
